Square brackets hold non-standard residues; d marks the D form. Ends that are not written are not given here.
The binders below were run against SNAP tagged-CXC4 receptor labeled with terbium (Tag-lite CXCR4 cells, HEK293) (UniProt P61073) (assay: HTRF competition on Tag-lite CXCR4 HEK293 cells; competitor labelled CXCL12).
Sequence of SNAP tagged-CXC4 receptor labeled with terbium (Tag-lite CXCR4 cells, HEK293) (P61073 whole entry): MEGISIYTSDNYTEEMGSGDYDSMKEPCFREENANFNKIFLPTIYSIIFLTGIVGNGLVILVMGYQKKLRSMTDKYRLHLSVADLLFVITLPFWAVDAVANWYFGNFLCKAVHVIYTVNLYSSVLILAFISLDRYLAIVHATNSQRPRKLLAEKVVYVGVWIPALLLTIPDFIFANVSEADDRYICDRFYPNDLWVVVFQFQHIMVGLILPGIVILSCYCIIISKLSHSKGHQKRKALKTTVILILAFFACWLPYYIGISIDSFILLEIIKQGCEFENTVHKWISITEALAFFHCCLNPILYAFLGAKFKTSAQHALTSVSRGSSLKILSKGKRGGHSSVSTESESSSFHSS

| IC50 [nM] | Percent Inhibition of CXCR4/CXCL12 Binding (400 nM peptide) [%] | Binder |
| --- | --- | --- |
| 573 | -2 | LRRYHHSVRSSLRPYTK-NH2 [SEQ ID NO: 16] |
| 7 | 77 | LERYHHS[dA]RSSLRPYTK-NH2 (N-terminus assumed; SMILES CC(C)C[C@H](NC(=O)[C@H](CO)NC(=O)[C@H](CO)NC(=O)[C@H](CCCNC(=N)N)NC(=O)[C@@H](C)NC(=O)[C@H](CO)NC(=O)[C@H](Cc1c[nH]cn1)NC(=O)[C@H](Cc1c[nH]cn1)NC(=O)[C@H](Cc1ccc(O)cc1)NC(=O)[C@H](CCCNC(=N)N)NC(=O)[C@H](CCC(=O)O)NC(=O)[C@@H](N)CC(C)C)C(=O)N[C@@H](CCCNC(=N)N)C(=O)N1CCC[C@H]1C(=O)N[C@@H](Cc1ccc(O)cc1)C(=O)N[C@H](C(=O)N[C@@H](CCCCN)C(N)=O)[C@@H](C)O) [SEQ ID NO: 57] |
| – | 76 | LERYHHT[dA]RSSLRPYTK [SEQ ID NO: 40] |
| 5 | 79 | LERYHHSVRSSLRPYTK-NH2 [SEQ ID NO: 56] |
